The target in the experiment is T1, CD3 epsilon homodimer protein (UniProt P07766 23-126).
T1 construct: Construct of the homodimer is not described; also called CD3 (CD3 epsilon)
In words: SPR Biacore T200, CD3e homodimer on chip, antibody analyte.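 Further: CD3 epsilon homodimer amine-coupled on CM4 sensor chip, antibodies injected as analyte at 25 °C in HBS-EP+, ratio ≥0.8 taken as binding retained versus unaltered parent antibody.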

T1 sequence (P07766 23-126): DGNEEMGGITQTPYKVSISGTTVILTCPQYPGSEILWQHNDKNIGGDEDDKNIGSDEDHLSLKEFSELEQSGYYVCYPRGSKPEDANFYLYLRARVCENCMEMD

B1: GLS3000 N53W one-arm antibody (antibody, human IgG1, kappa, L234A L235A, N297A, name in Kabat numbering)
light: DIVMTQSPLSLPVTPGEPASISCRSSQSLVHSNRNTYLHWYQQKPGQAPRLLIYKVSWRFSGVPDRFSGSGSGTDFTLKISRVEAEDVGVYYCGQGTQVPYTFGQGTKLEIKRTVAAPSVFIFPPSDEQLKSGTASVVCLLNNFYPREAKVQWKVDNALQSGNSQESVTEQDSKDSTYSLSSTLTLSKADYEKHKVYACEVTHQGLSSPVTKSFNRGEC
heavy: QVQLVESGGGVVQPGRSLRLSCAASGFTFSNAWMHWVRQAPGKGLEWVAQIKAKSNNYATYYAESVKGRFTISRDDSKNSLYLQMNSLKTEDTAVYYCRYVHYGAYYGVDAWGQGTTVTVSSASTKGPSVFPLAPSSKSTSGGTAALGCLVKDYFPEPVTVSWNSGALTSGVHTFPAVLQSSGLYSLSSVVTVPSSSLGTQTYICNVNHKPSNTKVDKKVEPKSCDKTHTCPPCPAPEAAGGPSVFLFPPKPKDTLMISRTPEVTCVVVDVSHEDPEVKFNWYVDGVEVHNAKTKPREEQYASTYRVVSVLTVLHQDWLNGKEYKCKVSNKALPAPIEKTISKAKGQPREPQVYTLPPSRCELTKNQVSLSCAVKGFYPSDIAVEWESNGQPENNYKTTPPVLDSDGSFFLVSKLTVDKSRWQQGNVFSCSVMHEALHNHYTQKSLSLSPDYKDDDDK
chain: EPKSSDKTHTCPPCPAPELLGGPSVFLFPPKPKDTLMISRTPEVTCVVVDVSHEDPEVKFNWYVDGVEVHNAKTKPREEQYNSTYRVVSVLTVLHQDWLNGKEYKCKVSNKALPAPIEKTISKAKGQPREPQVCTLPPSRDELTKNQVSLWCLVKGFYPSDIAVEWESNGQPENNYKTTPPVLDSDGSFFLYSKLTVDKSRWQQGNVFSCSVMHEALHNRYTQKSLSLSP
In the case of B1, the “ratio of amounts bound (altered form/GLS3000)” value came to 0.81.

B2: GLS3000 N53Y one-arm antibody (antibody, human IgG1, kappa, L234A L235A, N297A, name in Kabat numbering)
light: DIVMTQSPLSLPVTPGEPASISCRSSQSLVHSNRNTYLHWYQQKPGQAPRLLIYKVSYRFSGVPDRFSGSGSGTDFTLKISRVEAEDVGVYYCGQGTQVPYTFGQGTKLEIKRTVAAPSVFIFPPSDEQLKSGTASVVCLLNNFYPREAKVQWKVDNALQSGNSQESVTEQDSKDSTYSLSSTLTLSKADYEKHKVYACEVTHQGLSSPVTKSFNRGEC
heavy: QVQLVESGGGVVQPGRSLRLSCAASGFTFSNAWMHWVRQAPGKGLEWVAQIKAKSNNYATYYAESVKGRFTISRDDSKNSLYLQMNSLKTEDTAVYYCRYVHYGAYYGVDAWGQGTTVTVSSASTKGPSVFPLAPSSKSTSGGTAALGCLVKDYFPEPVTVSWNSGALTSGVHTFPAVLQSSGLYSLSSVVTVPSSSLGTQTYICNVNHKPSNTKVDKKVEPKSCDKTHTCPPCPAPEAAGGPSVFLFPPKPKDTLMISRTPEVTCVVVDVSHEDPEVKFNWYVDGVEVHNAKTKPREEQYASTYRVVSVLTVLHQDWLNGKEYKCKVSNKALPAPIEKTISKAKGQPREPQVYTLPPSRCELTKNQVSLSCAVKGFYPSDIAVEWESNGQPENNYKTTPPVLDSDGSFFLVSKLTVDKSRWQQGNVFSCSVMHEALHNHYTQKSLSLSPDYKDDDDK
chain: EPKSSDKTHTCPPCPAPELLGGPSVFLFPPKPKDTLMISRTPEVTCVVVDVSHEDPEVKFNWYVDGVEVHNAKTKPREEQYNSTYRVVSVLTVLHQDWLNGKEYKCKVSNKALPAPIEKTISKAKGQPREPQVCTLPPSRDELTKNQVSLWCLVKGFYPSDIAVEWESNGQPENNYKTTPPVLDSDGSFFLYSKLTVDKSRWQQGNVFSCSVMHEALHNRYTQKSLSLSP
As for B2, the “ratio of amounts bound (altered form/GLS3000)” value was 0.67.

B3: GLS3000 P95A one-arm antibody (antibody, human IgG1, kappa, L234A L235A, N297A, name in Kabat numbering)
light: DIVMTQSPLSLPVTPGEPASISCRSSQSLVHSNRNTYLHWYQQKPGQAPRLLIYKVSNRFSGVPDRFSGSGSGTDFTLKISRVEAEDVGVYYCGQGTQVAYTFGQGTKLEIKRTVAAPSVFIFPPSDEQLKSGTASVVCLLNNFYPREAKVQWKVDNALQSGNSQESVTEQDSKDSTYSLSSTLTLSKADYEKHKVYACEVTHQGLSSPVTKSFNRGEC
heavy: QVQLVESGGGVVQPGRSLRLSCAASGFTFSNAWMHWVRQAPGKGLEWVAQIKAKSNNYATYYAESVKGRFTISRDDSKNSLYLQMNSLKTEDTAVYYCRYVHYGAYYGVDAWGQGTTVTVSSASTKGPSVFPLAPSSKSTSGGTAALGCLVKDYFPEPVTVSWNSGALTSGVHTFPAVLQSSGLYSLSSVVTVPSSSLGTQTYICNVNHKPSNTKVDKKVEPKSCDKTHTCPPCPAPEAAGGPSVFLFPPKPKDTLMISRTPEVTCVVVDVSHEDPEVKFNWYVDGVEVHNAKTKPREEQYASTYRVVSVLTVLHQDWLNGKEYKCKVSNKALPAPIEKTISKAKGQPREPQVYTLPPSRCELTKNQVSLSCAVKGFYPSDIAVEWESNGQPENNYKTTPPVLDSDGSFFLVSKLTVDKSRWQQGNVFSCSVMHEALHNHYTQKSLSLSPDYKDDDDK
chain: EPKSSDKTHTCPPCPAPELLGGPSVFLFPPKPKDTLMISRTPEVTCVVVDVSHEDPEVKFNWYVDGVEVHNAKTKPREEQYNSTYRVVSVLTVLHQDWLNGKEYKCKVSNKALPAPIEKTISKAKGQPREPQVCTLPPSRDELTKNQVSLWCLVKGFYPSDIAVEWESNGQPENNYKTTPPVLDSDGSFFLYSKLTVDKSRWQQGNVFSCSVMHEALHNRYTQKSLSLSP
In the case of B3, the “ratio of amounts bound (altered form/GLS3000)” value amounted to 0.63.

B4: GLS3000 P95G one-arm antibody (antibody, human IgG1, kappa, L234A L235A, N297A, name in Kabat numbering)
light: DIVMTQSPLSLPVTPGEPASISCRSSQSLVHSNRNTYLHWYQQKPGQAPRLLIYKVSNRFSGVPDRFSGSGSGTDFTLKISRVEAEDVGVYYCGQGTQVGYTFGQGTKLEIKRTVAAPSVFIFPPSDEQLKSGTASVVCLLNNFYPREAKVQWKVDNALQSGNSQESVTEQDSKDSTYSLSSTLTLSKADYEKHKVYACEVTHQGLSSPVTKSFNRGEC
heavy: QVQLVESGGGVVQPGRSLRLSCAASGFTFSNAWMHWVRQAPGKGLEWVAQIKAKSNNYATYYAESVKGRFTISRDDSKNSLYLQMNSLKTEDTAVYYCRYVHYGAYYGVDAWGQGTTVTVSSASTKGPSVFPLAPSSKSTSGGTAALGCLVKDYFPEPVTVSWNSGALTSGVHTFPAVLQSSGLYSLSSVVTVPSSSLGTQTYICNVNHKPSNTKVDKKVEPKSCDKTHTCPPCPAPEAAGGPSVFLFPPKPKDTLMISRTPEVTCVVVDVSHEDPEVKFNWYVDGVEVHNAKTKPREEQYASTYRVVSVLTVLHQDWLNGKEYKCKVSNKALPAPIEKTISKAKGQPREPQVYTLPPSRCELTKNQVSLSCAVKGFYPSDIAVEWESNGQPENNYKTTPPVLDSDGSFFLVSKLTVDKSRWQQGNVFSCSVMHEALHNHYTQKSLSLSPDYKDDDDK
chain: EPKSSDKTHTCPPCPAPELLGGPSVFLFPPKPKDTLMISRTPEVTCVVVDVSHEDPEVKFNWYVDGVEVHNAKTKPREEQYNSTYRVVSVLTVLHQDWLNGKEYKCKVSNKALPAPIEKTISKAKGQPREPQVCTLPPSRDELTKNQVSLWCLVKGFYPSDIAVEWESNGQPENNYKTTPPVLDSDGSFFLYSKLTVDKSRWQQGNVFSCSVMHEALHNRYTQKSLSLSP
Turning to B4, the “ratio of amounts bound (altered form/GLS3000)” value came out at 0.37.

B5: GLS3000 P95E one-arm antibody (antibody, human IgG1, kappa, L234A L235A, N297A, name in Kabat numbering)
light: DIVMTQSPLSLPVTPGEPASISCRSSQSLVHSNRNTYLHWYQQKPGQAPRLLIYKVSNRFSGVPDRFSGSGSGTDFTLKISRVEAEDVGVYYCGQGTQVEYTFGQGTKLEIKRTVAAPSVFIFPPSDEQLKSGTASVVCLLNNFYPREAKVQWKVDNALQSGNSQESVTEQDSKDSTYSLSSTLTLSKADYEKHKVYACEVTHQGLSSPVTKSFNRGEC
heavy: QVQLVESGGGVVQPGRSLRLSCAASGFTFSNAWMHWVRQAPGKGLEWVAQIKAKSNNYATYYAESVKGRFTISRDDSKNSLYLQMNSLKTEDTAVYYCRYVHYGAYYGVDAWGQGTTVTVSSASTKGPSVFPLAPSSKSTSGGTAALGCLVKDYFPEPVTVSWNSGALTSGVHTFPAVLQSSGLYSLSSVVTVPSSSLGTQTYICNVNHKPSNTKVDKKVEPKSCDKTHTCPPCPAPEAAGGPSVFLFPPKPKDTLMISRTPEVTCVVVDVSHEDPEVKFNWYVDGVEVHNAKTKPREEQYASTYRVVSVLTVLHQDWLNGKEYKCKVSNKALPAPIEKTISKAKGQPREPQVYTLPPSRCELTKNQVSLSCAVKGFYPSDIAVEWESNGQPENNYKTTPPVLDSDGSFFLVSKLTVDKSRWQQGNVFSCSVMHEALHNHYTQKSLSLSPDYKDDDDK
chain: EPKSSDKTHTCPPCPAPELLGGPSVFLFPPKPKDTLMISRTPEVTCVVVDVSHEDPEVKFNWYVDGVEVHNAKTKPREEQYNSTYRVVSVLTVLHQDWLNGKEYKCKVSNKALPAPIEKTISKAKGQPREPQVCTLPPSRDELTKNQVSLWCLVKGFYPSDIAVEWESNGQPENNYKTTPPVLDSDGSFFLYSKLTVDKSRWQQGNVFSCSVMHEALHNRYTQKSLSLSP
In the case of B5, the “ratio of amounts bound (altered form/GLS3000)” value was 0.39.

B6: GLS3000 P95D one-arm antibody (antibody, human IgG1, kappa, L234A L235A, N297A, name in Kabat numbering)
light: DIVMTQSPLSLPVTPGEPASISCRSSQSLVHSNRNTYLHWYQQKPGQAPRLLIYKVSNRFSGVPDRFSGSGSGTDFTLKISRVEAEDVGVYYCGQGTQVDYTFGQGTKLEIKRTVAAPSVFIFPPSDEQLKSGTASVVCLLNNFYPREAKVQWKVDNALQSGNSQESVTEQDSKDSTYSLSSTLTLSKADYEKHKVYACEVTHQGLSSPVTKSFNRGEC
heavy: QVQLVESGGGVVQPGRSLRLSCAASGFTFSNAWMHWVRQAPGKGLEWVAQIKAKSNNYATYYAESVKGRFTISRDDSKNSLYLQMNSLKTEDTAVYYCRYVHYGAYYGVDAWGQGTTVTVSSASTKGPSVFPLAPSSKSTSGGTAALGCLVKDYFPEPVTVSWNSGALTSGVHTFPAVLQSSGLYSLSSVVTVPSSSLGTQTYICNVNHKPSNTKVDKKVEPKSCDKTHTCPPCPAPEAAGGPSVFLFPPKPKDTLMISRTPEVTCVVVDVSHEDPEVKFNWYVDGVEVHNAKTKPREEQYASTYRVVSVLTVLHQDWLNGKEYKCKVSNKALPAPIEKTISKAKGQPREPQVYTLPPSRCELTKNQVSLSCAVKGFYPSDIAVEWESNGQPENNYKTTPPVLDSDGSFFLVSKLTVDKSRWQQGNVFSCSVMHEALHNHYTQKSLSLSPDYKDDDDK
chain: EPKSSDKTHTCPPCPAPELLGGPSVFLFPPKPKDTLMISRTPEVTCVVVDVSHEDPEVKFNWYVDGVEVHNAKTKPREEQYNSTYRVVSVLTVLHQDWLNGKEYKCKVSNKALPAPIEKTISKAKGQPREPQVCTLPPSRDELTKNQVSLWCLVKGFYPSDIAVEWESNGQPENNYKTTPPVLDSDGSFFLYSKLTVDKSRWQQGNVFSCSVMHEALHNRYTQKSLSLSP
On to B6, for which the “ratio of amounts bound (altered form/GLS3000)” value is 0.24.

These data come from US20240270846A1 (published 2024).
